Measured values taken from patent publication US20080132445A1, “Method for Inducing Mammary Epithelial Cell Differentiation” (Garvan Institute of Medical Reserach, priority 2002, published 2008).

Columns and labels:
[1] = system: GalR1; details: stated as known; cited from earlier work
[2] = system: galanin expression (galanin promoter estrogen response element); details: Howard et al 1997; Kaplan et al 1988; cited from earlier work
[3] = system: Gal−/− mice mammary gland; assay: Prl treatment of Gal−/− mice throughout pregnancy (mini-osmotic pump); assay type: in vivo, mouse
Procedure: (§1) Mammary whole mounts were made by spreading the gland on a glass slide and fixing in 10% formalin solution. Glands were defatted in acetone before carmine alum (0.2% carmine, 0.5% aluminium sulfate) staining overnight. The whole mount was dehydrated using a graded ethanol series followed by xylene treatment for 60 min and storage and photography in methyl salicylate. Morphometric analysis was performed by counting the number of side branches, alveolar buds or lobuloalveoli per mammary gland (n=5) for mammary gland cultures or from 4 representative fields of view from whole 4th inguinal glands.
On the morning of the observation of a vaginal plug, 6-8 week old mice were implanted with a 0.25 μl per hour, 28 day mini-osmotic pump (Alzet) containing unmodified Prl prepared as described (23). Either 0.6 or 1.2 μg were delivered per 24 hr. On the first day post-partum maternal behaviour of mothers was observed, pups were examined for the presence of milk and glands were taken for histological analysis.
(§2) Quantitative PCR was performed using LightCycler technology (Roche). Primers were designed on the basis of mismatch to other genes for WDMN1, β-Actin, WAP, β-casein, […], Elf5, Glycam1, IGF1, GHR, SPOT 14 and PRLR. PCR reactions were performed in 10 μL volume with 1 μL of cDNA, 5 pmoles of each primer and FastStart DNA Master SYBR Green I enzyme mix (Roche) as per manufacturers instructions. Relative quantitation of the product was performed by comparing the crossing points of different samples normalised to an internal control (β-Actin). Each cycle in the linear phase of the reaction corresponds to a two fold difference in transcript levels between samples. Each reaction was performed in triplicate using pooled RNA from the 4-6 mammary glands or the treatment groups utilised for transcript profiling.

[4] = system: mammary glands (lobuloalveolar development); assay: Mammary gland whole organ culture, morphology and histology; assay type: cell-based, BALB/c mice
Procedure: as §1
Four week old BALB/c mice were implanted with estrogen, progesterone and cholesterol pellets (Ginsburg and Vonderhaar, 2000). Following nine days of treatment, the whole fourth glands were removed and stretched onto siliconized lens paper and placed into petri dishes containing 2 mL of Waymouths 152/1 medium supplemented with penicillin (100 U/ml), streptomycin (100 μg/ml), gentamycin sulfate (50 μg/ml), 20 mM HEPES, insulin (5 μg/ml), hydrocortisone (100 ng/ml) and aldosterone (100 ng/ml) (basal medium, IAH) to monitor ductal side branching, with and without 100 nM rat galanin (Auspep). […] Medium was changed after 24 hr, then every second day for 6 days before morphology and histology were assessed.

[5] = system: STAT5; assay: Western analysis of cultured mammary glands: JAK/STAT pathway; assay type: cell-based, mice; details: western blot
Procedure: (§3) Four week old BALB/c mice were implanted with estrogen, progesterone and cholesterol pellets (Ginsburg and Vonderhaar, 2000). Following nine days of treatment, the whole fourth glands were removed and stretched onto siliconized lens paper and placed into petri dishes containing 2 mL of Waymouths 152/1 medium supplemented with penicillin (100 U/ml), streptomycin (100 μg/ml), gentamycin sulfate (50 μg/ml), 20 mM HEPES, insulin (5 μg/ml), hydrocortisone (100 ng/ml) and aldosterone (100 ng/ml) (basal medium, IAH) to monitor ductal side branching, with and without 100 nM rat galanin (Auspep). To assess lobuloalveolar development ovine PRL (Sigma, 1 μg/ml) was added to the basal medium with or without galanin. Glands were maintained in a tri-gas incubator at 50% O2 and 5% CO2 in air. Medium was changed after 24 hr, then every second day for 6 days before morphology and histology were assessed.
(§4) Following RNA extraction from mammary glands using TRIZOL Reagent (Gibco BRL), protein was extracted following the manufacturer's instructions. […] Specific binding was detected using Horseradish peroxidase conjugated secondary antibodies (Amersham Biosciences) with Chemiluminescence Reagent (PerkinElmer) and Biomax Light Film (Eastman Kodak Company).

[6] = system: ERK1/2; assay: Western analysis of cultured mammary glands: MAP kinase pathway; assay type: cell-based, mice; details: western blot
Procedure: as §3, §4

[7] = system: Akt; assay: Western analysis of cultured mammary glands: PI3 kinase pathway; assay type: cell-based, mice; details: western blot
Procedure: as §3
Following RNA extraction from mammary glands using TRIZOL Reagent (Gibco BRL), protein was extracted following the manufacturer's instructions. Protein was separated using SDS-PAGE (Bio-Rad Laboratories), transferred to PVDF (Millipore) and blocked overnight with 5% skim milk powder, 2% fetal bovine serum, 50 mM sodium phosphate, 50 mM NaCl and 0.1% Tween 20. Membranes were incubated with one of the following primary antibodies: α-milk protein (Accurate Chemical & Scientific Corporation), α-STAT5a (Upstate Biotech), α-phospho-STAT5, α-phospho-Erk1/2, α-Erk2, α-phospho-Akt (S473), α-phospho-Akt (T308), α-Akt (Cell Signaling Technology) or α-β-Actin (Sigma). 20 μg of protein was loaded per lane except for α-milk protein were 400 ng of protein was loaded. Specific binding was detected using Horseradish peroxidase conjugated secondary antibodies (Amersham Biosciences) with Chemiluminescence Reagent (PerkinElmer) and Biomax Light Film (Eastman Kodak Company).

[8] = system: milk proteins (WAP, α-casein, β-casein); assay: Western analysis of cultured mammary glands: milk protein expression; assay type: cell-based, mice; details: western blot
Procedure: as §3, §4

[9] = system: mammary gland gene expression; assay: Transcript profiling of cultured mammary glands (Affymetrix MGU74Av2 GeneChips); assay type: cell-based, mice
Procedure: as §3
Total RNA was extracted using TRIZOL Reagent (Gibco BRL), purified using RNeasy Mini Kit (QIAGEN), cDNA synthesis performed using Superscript II (Invitrogen Life Technologies), synthesis of Biotin-labeled cRNA performed using BioArray HighYield RNA Transcript labeling Kit (Enzo Diagnostics) and hybridised to Affymetrix MGU74v2 GeneChips overnight as per manufacturers instructions. Arrays were performed in duplicate using 4-6 glands per treatment group from two separate replicate experiments. Analysis was performed using the Affymetrix GeneChip v5 software (MAS 5), with treatment groups compared back to IAH treatment as the baseline comparison. Principal Components Analysis was performed using JMP (SAS Institute). Venn diagrams where formed by selecting genes called increasing or decreasing by MAS 5 with a fold change greater then 1.7 compared to IAH. These groups were further restricted by excluding genes with a magnitude fold change >1.2 induced by the other treatments.
as §2

GALP (1-60): 60 amino acid neuropeptide, galanin-like peptide, binds GalR1 and GalR2 (APAHRGRGGWTLNSAGYLLGPVLHLPQMGDQDGKRETALEILDLWKAIDGLPYSHPPQPS; Galanin-like peptide; UniProt Q9UBC7 25-84, looked up)
affinity for GalR1 [1]: poor affinity

estrogen
increase of galanin expression [2]: about 4000 fold

B1: PRL: prolactin; ovine PRL (Sigma, 1 μg/ml) in culture, unmodified Prl by mini-osmotic pump in mice (protein, UniProt P01240 31-229, looked up)
Prolactin: TPVCPNGPGNCQVSLRDLFDRAVMVSHYIHNLSSEMFNEFDKRYAQGKGFITMALNSCHTSSLPTPEDKEQAQQTHHEVLMSLILGLLRSWNDPLYHLVTEVRGMKGVPDAILSRAIEIEEENKRLLEGMEMIFGQVIPGAKETEPYPVWSGLPSLQTKDEDARHSAFYNLLHCLRRDSSKIDTYLKLLNCRIIYNNNC
lactation and pup survival ([3]; 0.6 or 1.2 μg PRL per 24 hours by mini osmotic pump throughout pregnancy): restored lactation and allowed pup survival
lobuloalveolar density (mammary gland whole mounts) ([3]; PRL throughout pregnancy, 1st day post-partum): partial rescue
Keratin18 levels ([3]; PRL throughout pregnancy, quantitative RT-PCR): unchanged
milk protein gene expression (WDMN1, β-casein, WAP), lobuloalveolar differentiation ([3]; PRL throughout pregnancy, quantitative RT-PCR, 1st day post-partum): did not even partially rescue
number of lobuloalveoli per gland ([4]; IAH medium, PRL 1 μg/ml with or without 100 nM galanin): 8.6±2.1
ductal or lobuloalveolar development by quantitative morphology and histology ([4]; added to IAH medium, 100 nM galanin or ovine PRL 1 μg/ml, 6 days culture): lobuloalveolar development was observed
phosphorylated STAT5 / activation of the JAK/STAT pathway [5]: dramatic increase
total STAT5a [5]: increase
phosphorylated ERK / sustained activation of the MAP kinase pathway [6]: dramatically increased
total ERK1/2 [6]: decreased
mobility of Akt [7]: decreased mobility
phosphorylation of T308 and S473 residues of Akt [7]: did not increase
total Akt [7]: no increase
milk protein synthesis (WAP, α and β casein) [8]: synthesised
PDGFRA expression ([9]; cultured mammary glands): prevents galanin from reducing
regulation of galanin or its receptors ([9]; cultured mammary glands): did not regulate
genes regulated that are not regulated by the other hormone (unique transcriptional influence) ([9]; fold change 1.7 versus IAH): 160 genes
genes that changed expression in response to all three treatments ([9]; fold change 1.7 versus IAH, 40% of all regulated genes): 136 genes
genes regulated regardless of the presence of the other hormone ([9]; fold change greater than 1.7 versus IAH): 154 genes
genes regulated by the other hormone whose regulation is antagonised ([9]; prolactin against galanin's unique genes, galanin against 160 prolactin regulated genes): 30/31
